Results reported in patent US20240279310A1 (ALPINE IMMUNE SCIENCES, published 2024).
“And” between values parts separate entries of the source, which are not always exact repeats. Identical values can stand only once. Like-named read-outs stand apart in the source and are kept apart here.

T1: recombinant human APRIL (Tonbo Biosciences) (human, UniProt O75888 105-250, limits assumed)
T1 sequence (looked up): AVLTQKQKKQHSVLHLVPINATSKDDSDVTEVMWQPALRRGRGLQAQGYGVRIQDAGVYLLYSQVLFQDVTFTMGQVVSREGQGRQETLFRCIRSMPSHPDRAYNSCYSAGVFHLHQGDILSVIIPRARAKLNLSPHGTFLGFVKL


Columns and labels:
Experiment in all cases: cell-based or functional assay
[1] = target: BAFF 60-mer (an oligomer of twenty BAFF 3-mers)
[2] = target: T2, recombinant human BAFF (BioLegend) (human, UniProt Q9Y275 134-285)
[3] = target: T2, recombinant human BAFF (BioLegend); remark: listed apart in the source
[4] = target: T2, recombinant human BAFF (BioLegend); remark: listed apart in the source
[5] = target: T1, recombinant human APRIL (Tonbo …)
[6] = target: T2, recombinant human BAFF (BioLegend); remark: listed apart in the source
[7] = target: T1, recombinant human APRIL (Tonbo …); remark: listed apart in the source
[8] = target: T1, recombinant human APRIL (Tonbo …); remark: listed apart in the source

Row | Binder | BAFF 60-mer IC50 (pM) [1] | BAFF IC50 (pM) [2] | IC50 (pM) BAFF [3] | BAFF IC50 (pM) [4] | APRIL IC50 (pM) [8] | other results
1 | TACI WT 131 GS(G4S)2 (194) scFc_218 (SEQ ID NO: 205) (Fc fusion) SRVDQEERFPQGLWTGVAMRSCPEEQYWDPLLGTCMSCKTICNHQSQRTCAAFCRSLSCRKEQGKFYDHLLRDCISCASICGQHPKQCAYFCENKLRSPVNLPPELGSGGGGSGGGGSEPKSSDKTHTCPPCPAPEAEGAPSVFLFPPKPKDTLMISRTPEVTCVVVDVSHEDPEVKFNWYVDGVEVHNAKTKPREEQYNSTYRVVSVLTVLHQDWLNGKEYKCKVSNKALPAPIEKTISKAKGQPREPQVYTLPPSRDELTKNQVSLTCLVKGFYPSDIAVEWESNGQPENNYKTTPPVLDSDGSFFLYSKLTVDKSRWQQGNVFSCSVMHEALHNHYTQKSLSLSPGGGGGSGGGGSGGGGSGGGGSGGGGSGGGGSGGGGSGGGGSGGGGSGGGGSGGGGSGGGGSEPKSSDKTHTCPPCPAPEAEGAPSVFLFPPKPKDTLMISRTPEVTCVVVDVSHEDPEVKFNWYVDGVEVHNAKTKPREEQYNSTYRVVSVLTVLHQDWLNGKEYKCKVSNKALPAPIEKTISKAKGQPREPQVYTLPPSRDELTKNQVSLTCLVKGFYPSDIAVEWESNGQPENNYKTTPPVLDSDGSFFLYSKLTVDKSRWQQGNVFSCSVMHEALHNHYTQKSLSLSPG | 14300 pM | 4580 pM |  |  |  | 
2 | belimumab, anti-BAFF monoclonal antibody (antibody, V domains shown) VH: QVQLQQSGAEVKKPGSSVRVSCKASGGTFNNNAINWVRQAPGQGLEWMGGIIPMFGTAKYSQNFQGRVAITADESTGTASMELSSLRSEDTAVYYCARSRDLLLFPHHALSPWGRGTMVTVSS VL: SSELTQDPAVSVALGQTVRVTCQGDSLRSYYASWYQQKPGQAPVLVIYGKNNRPSGIPDRFSGSSSGNTASLTITGAQAEDEADYYCSSRDSSGNHWVFGGGTELTVLG |  |  | 2260 pM | 2200 pM |  | BAFF IC50 (Δ WT) [4]: 1.18 ratio; IC50 (nM) APRIL [5]: 215000 nM; IC50 APRIL (Δ TACI 30-110-Fc) [5]: 55.8 ratio; IC50 (nM) BAFF [6]: 2500 nM; IC50 BAFF (Δ TACI 30-110-Fc) [6]: 0.43 ratio
3 | Telitacicept/Tai'ai (RemeGen) (Fc fusion) SRVDQEERFPQGLWTGVAMRSCPEEQYWDPLLGTCMSCKTICNHQSQRTCAAFCRSLSCRKEQGKFYDHLLRDCISCASICGQHPKQCAYFCENKLRSPVNLPPEL |  |  | 6850 pM | 9170 pM and 7300 pM |  | IC50 (pM) APRIL [7]: 17200 pM
4 | TACI WT 13 GSG4S (74) Fc 73(G4S)4 (84) (TACI WT 13 (SEQ ID NO: 202) (Fc fusion) SLSCRKEQGKFYDHLLRDCISCASICGQHPKQCAYFCENKLRSGSGGGGSEPKSSDKTHTCPPCPAPEAEGAPSVFLFPPKPKDTLMISRTPEVTCVVVDVSHEDPEVKFNWYVDGVEVHNAKTKPREEQYNSTYRVVSVLTVLHQDWLNGKEYKCKVSNKALPAPIEKTISKAKGQPREPQVYTLPPSRDELTKNQVSLTCLVKGFYPSDIAVEWESNGQPENNYKTTPPVLDSDGSFFLYSKLTVDKSRWQQGNVFSCSVMHEALHNHYTQKSLSLSPGGGGGSGGGGSGGGGSGGGGSSLSCRKEQGKFYDHLLRDCISCASICGQHPKQCAYFCENKLRS | 2580 pM | 1040 pM |  |  | 11900 pM | 
5 | TACI 26 GSG4S (74) Fc 73 (G4S)4 (84) TACI 26 (SEQ ID NO: 201) (Fc fusion) SLSCRKEQGEYYDHLLRDCISCASICGQHPKQCADFCENKLRSGSGGGGSEPKSSDKTHTCPPCPAPEAEGAPSVFLFPPKPKDTLMISRTPEVTCVVVDVSHEDPEVKFNWYVDGVEVHNAKTKPREEQYNSTYRVVSVLTVLHQDWLNGKEYKCKVSNKALPAPIEKTISKAKGQPREPQVYTLPPSRDELTKNQVSLTCLVKGFYPSDIAVEWESNGQPENNYKTTPPVLDSDGSFFLYSKLTVDKSRWQQGNVFSCSVMHEALHNHYTQKSLSLSPGGGGGSGGGGSGGGGSGGGGSSLSCRKEQGEYYDHLLRDCISCASICGQHPKQCADFCENKLRS | 778 pM | 779 pM |  |  | 3760 pM | 
6 | TACI WT 1 GS(G4S)2 (194) scFc_218 (SEQ ID NO: 203) (Fc fusion) VAMRSCPEEQYWDPLLGTCMSCKTICNHQSQRTCAAFCRSLSCRKEQGKFYDHLLRDCISCASICGQHPKQCAYFCENKLRSGSGGGGSGGGGSEPKSSDKTHTCPPCPAPEAEGAPSVFLFPPKPKDTLMISRTPEVTCVVVDVSHEDPEVKFNWYVDGVEVHNAKTKPREEQYNSTYRVVSVLTVLHQDWLNGKEYKCKVSNKALPAPIEKTISKAKGQPREPQVYTLPPSRDELTKNQVSLTCLVKGFYPSDIAVEWESNGQPENNYKTTPPVLDSDGSFFLYSKLTVDKSRWQQGNVFSCSVMHEALHNHYTQKSLSLSPGGGGGSGGGGSGGGGSGGGGSGGGGSGGGGSGGGGSGGGGSGGGGSGGGGSGGGGSGGGGSEPKSSDKTHTCPPCPAPEAEGAPSVFLFPPKPKDTLMISRTPEVTCVVVDVSHEDPEVKFNWYVDGVEVHNAKTKPREEQYNSTYRVVSVLTVLHQDWLNGKEYKCKVSNKALPAPIEKTISKAKGQPREPQVYTLPPSRDELTKNQVSLTCLVKGFYPSDIAVEWESNGQPENNYKTTPPVLDSDGSFFLYSKLTVDKSRWQQGNVFSCSVMHEALHNHYTQKSLSLSPG | 15800 pM | 4420 pM |  |  |  | 
7 | atacicept (WT TACI-Fc sequences corresponding to atacicept, containing WT TACI 30-110; SEQ ID NO:132) (Fc fusion) AMRSCPEEQYWDPLLGTCMSCKTICNHQSQRTCAAFCRSLSCRKEQGKFYDHLLRDCISCASICGQHPKQCAYFCENKLRSEPKSSDKTHTCPPCPAPEAEGAPSVFLFPPKPKDTLMISRTPEVTCVVVDVSHEDPEVKFNWYVDGVEVHNAKTKPREEQYNSTYRVVSVLTVLHQDWLNGKEYKCKVSNKALPSSIEKTISKAKGQPREPQVYTLPPSRDELTKNQVSLTCLVKGFYPSDIAVEWESNGQPENNYKTTPPVLDSDGSFFLYSKLTVDKSRWQQGNVFSCSVMHEALHNHYTQKSLSLSPGK |  |  | 8280 pM | 7740 pM |  | IC50 (pM) APRIL [7]: 9260 pM; BAFF IC50 (Δ WT) [4]: 4.17 ratio
8 | TACI WT 13 GS(G4S)2 (194) sc_Fc 218 (SEQ ID NO: 196) (Fc fusion) SLSCRKEQGKFYDHLLRDCISCASICGQHPKQCAYFCENKLRSGSGGGGSGGGGSEPKSSDKTHTCPPCPAPEAEGAPSVFLFPPKPKDTLMISRTPEVTCVVVDVSHEDPEVKFNWYVDGVEVHNAKTKPREEQYNSTYRVVSVLTVLHQDWLNGKEYKCKVSNKALPAPIEKTISKAKGQPREPQVYTLPPSRDELTKNQVSLTCLVKGFYPSDIAVEWESNGQPENNYKTTPPVLDSDGSFFLYSKLTVDKSRWQQGNVFSCSVMHEALHNHYTQKSLSLSPGGGGGSGGGGSGGGGSGGGGSGGGGSGGGGSGGGGSGGGGSGGGGSGGGGSGGGGSGGGGSEPKSSDKTHTCPPCPAPEAEGAPSVFLFPPKPKDTLMISRTPEVTCVVVDVSHEDPEVKFNWYVDGVEVHNAKTKPREEQYNSTYRVVSVLTVLHQDWLNGKEYKCKVSNKALPAPIEKTISKAKGQPREPQVYTLPPSRDELTKNQVSLTCLVKGFYPSDIAVEWESNGQPENNYKTTPPVLDSDGSFFLYSKLTVDKSRWQQGNVFSCSVMHEALHNHYTQKSLSLSPG | 24100 pM | 5700 pM |  |  |  | 
9 | TACI 26 GS(G4S)2 (194) scFc_218 (SEQ ID NO: 199) (Fc fusion) SLSCRKEQGEYYDHLLRDCISCASICGQHPKQCADFCENKLRSGSGGGGSGGGGSEPKSSDKTHTCPPCPAPEAEGAPSVFLFPPKPKDTLMISRTPEVTCVVVDVSHEDPEVKFNWYVDGVEVHNAKTKPREEQYNSTYRVVSVLTVLHQDWLNGKEYKCKVSNKALPAPIEKTISKAKGQPREPQVYTLPPSRDELTKNQVSLTCLVKGFYPSDIAVEWESNGQPENNYKTTPPVLDSDGSFFLYSKLTVDKSRWQQGNVFSCSVMHEALHNHYTQKSLSLSPGGGGGSGGGGSGGGGSGGGGSGGGGSGGGGSGGGGSGGGGSGGGGSGGGGSGGGGSGGGGSEPKSSDKTHTCPPCPAPEAEGAPSVFLFPPKPKDTLMISRTPEVTCVVVDVSHEDPEVKFNWYVDGVEVHNAKTKPREEQYNSTYRVVSVLTVLHQDWLNGKEYKCKVSNKALPAPIEKTISKAKGQPREPQVYTLPPSRDELTKNQVSLTCLVKGFYPSDIAVEWESNGQPENNYKTTPPVLDSDGSFFLYSKLTVDKSRWQQGNVFSCSVMHEALHNHYTQKSLSLSPG | 106000 pM | 8240 pM |  |  |  | 
10 | TACI WT 13 (G4S)4 (84) (TACI WT 13 GSG4S (74) Fc 73 (SEQ ID NO: 198) (Fc fusion) SLSCRKEQGKFYDHLLRDCISCASICGQHPKQCAYFCENKLRSGGGGSGGGGSGGGGSGGGGSSLSCRKEQGKFYDHLLRDCISCASICGQHPKQCAYFCENKLRSGSGGGGSEPKSSDKTHTCPPCPAPEAEGAPSVFLFPPKPKDTLMISRTPEVTCVVVDVSHEDPEVKFNWYVDGVEVHNAKTKPREEQYNSTYRVVSVLTVLHQDWLNGKEYKCKVSNKALPAPIEKTISKAKGQPREPQVYTLPPSRDELTKNQVSLTCLVKGFYPSDIAVEWESNGQPENNYKTTPPVLDSDGSFFLYSKLTVDKSRWQQGNVFSCSVMHEALHNHYTQKSLSLSPG | 4330 pM | 3290 pM |  |  | 34600 pM | 
